Experimental findings from US20160326237A1 (ANNEXON, published 2016) are described below.

By Kd is commonly meant the concentration at which binding is half-saturated. Lower therefore signals tighter binding. As a reminder, the koff is the first-order rate constant of dissociation. A lower koff goes with a long-lived complex. Usually kon stands for the rate constant with which the complex forms.

For experiment [1], the target named is T1, human C1q (human, UniProt P02745 23-245; P02746 28-253; P02747 29-245).
T1 construct: Native C1q (about 460 kDa) holds several copies of each chain; also called hC1q; C1Q antigen
T1 sequence (P02745 23-245 limits assumed, chain 1 of 3): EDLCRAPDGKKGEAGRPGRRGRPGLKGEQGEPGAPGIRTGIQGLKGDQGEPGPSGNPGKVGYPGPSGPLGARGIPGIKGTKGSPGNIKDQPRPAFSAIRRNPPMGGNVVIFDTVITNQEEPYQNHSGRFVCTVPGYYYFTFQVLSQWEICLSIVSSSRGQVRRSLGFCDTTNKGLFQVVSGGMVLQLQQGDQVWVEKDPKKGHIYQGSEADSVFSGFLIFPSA
T1 sequence (P02746 28-253 limits assumed, chain 2 of 3): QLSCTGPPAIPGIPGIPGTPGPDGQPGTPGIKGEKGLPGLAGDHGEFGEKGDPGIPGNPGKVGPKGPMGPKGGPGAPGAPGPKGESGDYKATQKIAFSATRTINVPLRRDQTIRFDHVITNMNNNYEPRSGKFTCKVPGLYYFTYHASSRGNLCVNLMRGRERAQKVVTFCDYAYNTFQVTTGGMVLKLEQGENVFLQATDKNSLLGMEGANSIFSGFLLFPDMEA
T1 sequence (P02747 29-245 limits assumed, chain 3 of 3): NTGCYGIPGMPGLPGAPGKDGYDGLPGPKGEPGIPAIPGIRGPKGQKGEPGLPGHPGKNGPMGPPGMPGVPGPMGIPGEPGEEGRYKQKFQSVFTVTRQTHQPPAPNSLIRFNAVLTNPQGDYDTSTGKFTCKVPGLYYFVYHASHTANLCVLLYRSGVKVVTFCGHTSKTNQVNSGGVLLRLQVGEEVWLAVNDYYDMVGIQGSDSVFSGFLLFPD
Briefly: BLI (OCTET).

Experiment [2] deals with T2, mouse C1q (mouse, UniProt P14106 26-253). Briefly: BLI (OCTET).
T2 sequence (chain, as listed by the source, chain 1 of 3): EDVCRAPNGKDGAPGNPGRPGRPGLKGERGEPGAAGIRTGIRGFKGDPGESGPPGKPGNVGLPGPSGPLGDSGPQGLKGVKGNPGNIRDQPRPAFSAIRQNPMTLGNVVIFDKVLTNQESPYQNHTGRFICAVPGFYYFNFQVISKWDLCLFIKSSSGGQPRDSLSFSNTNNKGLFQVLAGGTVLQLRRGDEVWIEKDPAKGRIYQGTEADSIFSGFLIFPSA
T2 sequence (P14106 26-253, chain 2 of 3): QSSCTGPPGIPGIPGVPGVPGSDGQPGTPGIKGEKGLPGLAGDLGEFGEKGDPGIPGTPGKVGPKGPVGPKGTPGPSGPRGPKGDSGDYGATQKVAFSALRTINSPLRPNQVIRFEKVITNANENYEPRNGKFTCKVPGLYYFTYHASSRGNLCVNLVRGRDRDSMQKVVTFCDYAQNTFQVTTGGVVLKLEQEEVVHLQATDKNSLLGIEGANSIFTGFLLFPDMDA
T2 sequence (chain, as listed by the source, chain 3 of 3): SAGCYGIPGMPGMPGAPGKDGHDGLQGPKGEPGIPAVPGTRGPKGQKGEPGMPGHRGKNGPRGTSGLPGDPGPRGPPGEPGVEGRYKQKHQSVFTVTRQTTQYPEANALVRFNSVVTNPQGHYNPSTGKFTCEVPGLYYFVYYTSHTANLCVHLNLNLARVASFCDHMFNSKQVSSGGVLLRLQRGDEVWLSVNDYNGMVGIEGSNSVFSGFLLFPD
The target in experiment [3] is T1, human C1q. Briefly: BLI (OCTET), C1q immobilised, antibody 2.0 ug/ml.
The target of experiment [4] is T2, mouse C1q. As to the kind of experiment: BLI (OCTET), C1q immobilised, antibody 2.0 ug/ml.

B1: murine anti-human C1q monoclonal antibody M1 (antibody)
chain 1: QVQLQQPGAELVKPGASVKLSCKSSGYHFTSYWMHWVKQRPGQGLEWIGVIHPNSGSINYNEKFESKATLTVDKSSSTAYMQLSSLTSEDSAVYYCAGERDSTEVLPMDYWGQGTSVTVSS
chain 2: DVQITQSPSYLAASPGETITINCRASKSINKYLAWYQEKPGKTNKLLIYSGSTLQSGIPSRFSGSGSGTDFTLTISSLEPEDFAMYYCQQHNEYPLTFGAGTKLELK
Consider B1, for which the Kd in experiment [1] is below 100 pM; in experiment [2] it was below 100 pM; in experiment [3], 12.8 pM; in experiment [4] it was 32.3 pM. In addition, the off-rate (koff) was found to be 6.31e-05 s⁻¹ in experiment [3] and 5.84e-05 s⁻¹ in experiment [4]. For the same molecule, the kon turned out to be 5.18e+06 M⁻¹ s⁻¹ in experiment [3] and 1.81e+06 M⁻¹ s⁻¹ in experiment [4].
